Test results as given in patent publication US20200062863A1 (CSL BEHRING, published 2020).
Residue numbers refer to the chain shown, from its start.

Legend:
Assay in all cases: Western blot of culture supernatant (non-reducing SDS-PAGE) probed with 3F7 mAb, anti-human IgG-FITC
A589D = target: T1, A589D
T1 construct: also called Mu-FXII A589D mutant with C-terminal 8xHis-tag; mutant n)
T1 single chain: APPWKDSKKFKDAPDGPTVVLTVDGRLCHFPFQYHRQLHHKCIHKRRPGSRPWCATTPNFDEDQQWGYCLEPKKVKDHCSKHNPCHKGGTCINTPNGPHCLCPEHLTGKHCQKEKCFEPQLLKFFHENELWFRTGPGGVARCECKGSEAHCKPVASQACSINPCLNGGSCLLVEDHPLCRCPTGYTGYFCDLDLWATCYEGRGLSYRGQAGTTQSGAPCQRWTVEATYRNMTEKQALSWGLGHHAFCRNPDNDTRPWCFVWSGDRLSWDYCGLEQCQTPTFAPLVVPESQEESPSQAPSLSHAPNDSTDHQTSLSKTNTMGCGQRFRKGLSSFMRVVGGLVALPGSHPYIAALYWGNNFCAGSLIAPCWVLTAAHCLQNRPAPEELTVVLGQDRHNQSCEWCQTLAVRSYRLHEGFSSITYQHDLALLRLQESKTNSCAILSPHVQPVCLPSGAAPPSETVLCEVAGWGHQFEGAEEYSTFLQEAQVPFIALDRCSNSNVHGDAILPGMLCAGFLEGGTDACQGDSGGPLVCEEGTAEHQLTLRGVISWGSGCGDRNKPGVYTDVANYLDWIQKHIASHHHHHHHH
Procedure: (§1) Proteins were then transferred electrophoretically onto nitrocellulose filters and blocked for 1 hour in 5% Milk powder in Tris-buffered saline with 0.05% Tween-20 (TTBS). Filters were then incubated for 1 hour with either 3F7 mAb or an anti-His mAb 3H3 (both at […] in TTBS with 5% Milk powder), washed thoroughly with TTBS, then incubated for a further hour with anti-human IgG-FITC or anti-mouse IgG-FITC, respectively (Millipore, USA; both at 0.25 mg/ml in TTBS with 5% Milk powder). Following further washing of membranes in TTBS, Ab-FITC bound proteins were visualized using a Typhoon variable mode analyzer (GE Healthcare, USA).

N376D = target: T2, N376D
T2 construct: also called Mu-FXII N376D mutant with C-terminal 8xHis-tag; mutant a)
T2 single chain: T1 single chain with N357D, D570A
Procedure: as §1

A385D = target: T3, A385D
T3 construct: also called Mu-FXII A385D mutant with C-terminal 8xHis-tag; mutant b)
T3 single chain: T1 single chain with A366D, D570A
Procedure: as §1

T538A = target: T4, T538A
T4 construct: also called Mu-FXII T538A mutant with C-terminal 8xHis-tag; mutant m)
T4 single chain: T1 single chain with T519A, D570A
Procedure: as §1

binding result (A589D): binds
binding result (N376D): binds
binding result (A385D): binds
binding result (T538A): binds
B1: monoclonal antibody 3F7 (fully human IgG4/lambda) (antibody, V domains shown)
VH: EVQLLESGGGLVQPGGSLRLSCAASGFTFSKYIMQWVRQAPGKGLEWVSGIRPSGGTTVYADSVKGRFTISRDNSKNTLYLQMNSLRAEDTAVYYCARALPRSGYLISPHYYYYALDVWGQGTTVTVSS
VL: QSELTQPPSASGTPGQRVTISCSGSSSNIGRNYVYWYQQVPGTAPKLLIYSNNQRPSGVPDRFSGSKSGTSASLVISGLRSEDEADYYCAAWDASLRGVFGGGTKLTVLG
notes: also called 3F7 mAb; MAb 3F7
